Laboratory results published in the supplement of paper PMC9170038.

Tested on: MS2 coat protein
Experiment: apparent KD of MS2 coat protein; designed switch direction (-1 OFF switch, 1 ON switch): -1; higher = weaker reporter binding
Method in brief: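 Designed RNA switches sharing common flanks were transcribed on Illumina chips by stalled E. coli RNA polymerase. They were titrated with SNAP-549-labelled MS2 coat protein, from 0.7 or 1.5 nM doubling to 3 µM, in Tris-HCl pH 7.5 buffer with KCl, MgCl2, BSA, DTT, tRNA and Tween-20. Titrations ran without input, with 200 uM small-molecule ligand, or with an oligonucleotide input. The apparent KD of each design is the median over its clusters, after curve-fitting of normalised cluster fluorescence.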

[1] = Eterna round: R95, input ligand: FMN 200 uM
[2] = Eterna round: R95, input ligand: microRNA oligo, concentration not stated
[3] = Eterna round: R95, input ligand: none
[4] = input ligand: microRNA oligo, concentration not stated

Sequence: AAGUCGGCAGGAUAUACAUGAGGAUCACCCAUGUAAAUUUUUCGUUUAACUUGAAUGUGUAGAAGGGCCAUGAA [Ex3 #67] (Eterna round: R97, puzzle: Exclusion 3)
- apparent KD of MS2 coat protein (input ligand: FMN 200 uM): 25.8 nM
- apparent KD of MS2 coat protein (input ligand: none): 27.2 nM

Sequence: UGCGAGUAAGGAUAUUCGCGACCGCCCACAAAGGCGGUCGAGAAGAAGGUACUUGAGGAUCACCCAAGUCCUAA [Anremaqu] (Eterna round: R97, puzzle: Exclusion 4)
- apparent KD of MS2 coat protein (input ligand: FMN 200 uM): 98.2 nM
- apparent KD of MS2 coat protein (input ligand: none): 22 nM

Sequence: AAAAGAAGUGUUAGGAUAUGUGGAAGUAGAAAGACACAGAAGGAACAUGAGGAUCACCCAUGUGGCCUAAGAAC [Bibire] (puzzle: Brourd's mod of Exclusion 4)
- apparent KD of MS2 coat protein [1]: 15.4 nM
- apparent KD of MS2 coat protein [2]: 10.5 nM
- apparent KD of MS2 coat protein [3]: 11.6 nM

Sequence: AGUACUGACACGUUGGUGUUAGUACAAUAAGCUUGUGUUACAUGAGGAUCACCCAUGUCCUCAUAAGCUCGUCUUAU [salish99_TOv2_r2_095] (puzzle: Sensor v3, turn-off variant 2)
- apparent KD of MS2 coat protein [1]: 117 nM
- apparent KD of MS2 coat protein [2]: 38.4 nM
- apparent KD of MS2 coat protein [3]: 138 nM

Sequence: CGACUGUGAGGAUAUGGUGAGUAGUGCCUGAGCGCUGCUCACCAGAAGGCACAUGAGGAUCACCCAUGUAUAGC [Mat - Exclusion 4 - Mod of JL - D9] (puzzle: Exclusion 4)
- apparent KD of MS2 coat protein [2]: 31.7 nM

Sequence: GAGUGCUGAGGAUAUACAUGAGGAUCACCCAUGUGCUUCAGCUAGGAGACUAGCAUUGGUAGAAGGCAGUACUC [LRO-Excl3-01] (puzzle: Exclusion 3)
- apparent KD of MS2 coat protein [2]: 11.1 nM

Sequence: AGGUACUUCAGGAGACAUGAGGAUCACCCAUGUUGAGUUAGCGAGGAUAUCGGUAACCAUUGUUAUGAGAAGGCGCAAACCAGA [Ex NG3 #42] (Eterna round: R96, puzzle: Exclusion NG 3)
- apparent KD of MS2 coat protein (input ligand: FMN 200 uM): 25.9 nM
- apparent KD of MS2 coat protein [4]: 15 nM
- apparent KD of MS2 coat protein (input ligand: none): 15.3 nM

Sequence: AGCCUAGCAGGAUAUGCCCGGGAUAACAUGAGGAUCACCCAUGUGACUGAUUGAUGUCUUGCAGAAGGGCUAGGGA [JL-EX5-4.03 ViennaUCT mod] (Eterna round: R97, puzzle: Exclusion 5)
- apparent KD of MS2 coat protein (input ligand: FMN 200 uM): 211 nM
- apparent KD of MS2 coat protein (input ligand: none): 26.1 nM

Sequence: CCAAGCUUAUUCAUUAACAACAUGAGGAUCACCCAUGUGUAAGCAAUUAUGUUUGGGCUCUUUAGUGCUCGUCUUAU [Sensor-V1 #21] (Eterna round: R97, puzzle: Sensor, turn-off variant 1)
- apparent KD of MS2 coat protein (input ligand: FMN 200 uM): 13.7 nM
- apparent KD of MS2 coat protein (input ligand: none): 13.9 nM

Sequence: GCCGAAAGUGUGAGGAUAUACCUAUGGAAACAUAGGUAGAAGGCACAUGAGGAUCACCCAUGUGUCCAAACGGC [Mat - Exclusion 4 - Eli Mod - D23] (Eterna round: R97, puzzle: Brourd's mod of Exclusion 4)
- apparent KD of MS2 coat protein (input ligand: FMN 200 uM): 41.5 nM
- apparent KD of MS2 coat protein (input ligand: none): 16.5 nM

Sequence: GCACGGAGUGCAGGAUAUCUGUGCGAUUAGCUCAGAGAAGGGCACAUGAGGAUCACCCAUGUGUAUAAACACAAUAAUCCGUGC [Eli exng1 - 068] (Eterna round: R96, puzzle: Exclusion NG 1)
- apparent KD of MS2 coat protein (input ligand: FMN 200 uM): 18.6 nM
- apparent KD of MS2 coat protein [4]: 9.94 nM
- apparent KD of MS2 coat protein (input ligand: none): 14 nM

Sequence: AGCCAUCGUGUGAGGAUAUCGAUAAGUUCGAGUUUCGAGAAGGCACAUGAGGAUCACCCAUGUCGUGAAAGAAA [BmEX4 A.28] (Eterna round: R97, puzzle: Brourd's mod of Exclusion 4)
- apparent KD of MS2 coat protein (input ligand: FMN 200 uM): 75.8 nM
- apparent KD of MS2 coat protein (input ligand: none): 244 nM

Sequence: CUAGGGCACAAUUAAGCGCCCUAACAUGAGGAUCACCCAUGUCAGGAUAUGUAGGCAAAGACCCUACAGAAGGGACAUGUCCUA [Artileza] (Eterna round: R96, puzzle: Exclusion NG 3)
- apparent KD of MS2 coat protein (input ligand: FMN 200 uM): 393 nM
- apparent KD of MS2 coat protein [4]: 46.3 nM
- apparent KD of MS2 coat protein (input ligand: none): 69.2 nM

Sequence: GUAGUGUUAGGAUAUCUGCCUCCGAGGUAUUCCAUGAAUAGAGAGAAGGGACAUGAGGAUCACCCAUGUGGGUA [Eternabot (L2) Solution 92] (Eterna round: R97, puzzle: Exclusion 4)
- apparent KD of MS2 coat protein (input ligand: FMN 200 uM): 90.5 nM
- apparent KD of MS2 coat protein (input ligand: none): 295 nM

Sequence: CUGGUCCGAGGAUAUAUGAUGUGAAACAUGAGGAUCACCCAUGUAAUAUUAUGGAUGGAAAUAGAAGGCGGACUAG [Mat - Exclusion 5 - JL mod - D36] (puzzle: Exclusion 5)
- apparent KD of MS2 coat protein [1]: 63.5 nM
- apparent KD of MS2 coat protein [2]: 49.7 nM
- apparent KD of MS2 coat protein [3]: 65.2 nM

Sequence: CUCUUGGCAGGAUAUGCUCUCUUAGACAUGAGGAUCACCCAUGUGUUCAUUCUUUCUUUUGCAGAAGGGCCUUAAC [JR_E5_Sub046] (puzzle: Exclusion 5)
- apparent KD of MS2 coat protein [2]: 65.2 nM

Sequence: GUGGAGGUAGGAUAUCCGCUUCCGGACAUGAGGAUCACCCAUGUUGUUCGGAUUGGACAGGGAGAAGGGCCCACAA [Eternabot (Original) Solution 37] (Eterna round: R97, puzzle: Exclusion 5)
- apparent KD of MS2 coat protein (input ligand: FMN 200 uM): 44.9 nM
- apparent KD of MS2 coat protein (input ligand: none): 39.3 nM

Sequence: GUACUGAAGCUUUGCUUUAGUCGUACAUGAGGAUCACCCAUGUAGGAUAUGGUAAGCAUAGCUUACUAGAAGGAUAGAGUGAUC [Mat - Exclusion NG 3 - Mod of JL - D65] (Eterna round: R96, puzzle: Exclusion NG 3)
- apparent KD of MS2 coat protein (input ligand: FMN 200 uM): 169 nM
- apparent KD of MS2 coat protein [4]: 56.6 nM
- apparent KD of MS2 coat protein (input ligand: none): 97.8 nM

Sequence: CUUUUGUGAGGAUAUCAGUAGUAAAUAAAUAUAAUUACUACUGAGAAGGCACAUGAGGAUCACCCAUGUUCCUC [salish99_ex3_r3_082] (puzzle: Exclusion 4)
- apparent KD of MS2 coat protein [2]: 38.2 nM

Sequence: UGAGCUUCAGGAUAUACAAGGCGACCGUGAGGUCGAAGGUUACAUGAGGAUCACCCAUGUAGAAGGGAAGUUCU [Mat - Exclusion 2 - JL Mod - D13] (Eterna round: R97, puzzle: Exclusion 2)
- apparent KD of MS2 coat protein (input ligand: FMN 200 uM): 36.7 nM
- apparent KD of MS2 coat protein (input ligand: none): 21.6 nM

Sequence: GUUUUCAGACGGAGAUCCUACAUGAGGAUCACCCAUGUCUCACUUGUUUUUUGCUCGUCUUAUCCUCCUCUGUUCUC [Elimod 30 - Jieux - Sensor, turn-off variant 1] (Eterna round: R97, puzzle: Sensor, turn-off variant 1)
- apparent KD of MS2 coat protein (input ligand: FMN 200 uM): 414 nM
- apparent KD of MS2 coat protein (input ligand: none): 667 nM

Sequence: GGACUGCGACACAGCCAAACAAAACAUGAGGAUCACCCAUGUCAGGAUAUACCGAUGCAGCAUCUGUAGAAGGGACAGAUCCAA [Qusorave] (Eterna round: R96, puzzle: Exclusion NG 3)
- apparent KD of MS2 coat protein (input ligand: FMN 200 uM): 80.3 nM
- apparent KD of MS2 coat protein [4]: 45.4 nM
- apparent KD of MS2 coat protein (input ligand: none): 85.9 nM

Sequence: GGAAUGUAAGGAUAUGCGAAAAGAAGCCGAAGGGAGUCGAAGCAGAAGGUACAUGAGGAUCACCCAUGUAAGGG [AK-MS2ROC-r4-exclusion4-12.1] (Eterna round: R97, puzzle: Exclusion 4)
- apparent KD of MS2 coat protein (input ligand: FMN 200 uM): 159 nM
- apparent KD of MS2 coat protein (input ligand: none): 700 nM

Sequence: AUUACUAACACGAAAGUGUUAGUACAAUAAGCUUGUGAAACAUGAGGAUCACCCAUGUCCUCAUAAGCUCGUCUUAA [salish99_TOv2_r3_010] (puzzle: Sensor v3, turn-off variant 2)
- apparent KD of MS2 coat protein [1]: 14 nM
- apparent KD of MS2 coat protein [2]: 217 nM
- apparent KD of MS2 coat protein [3]: 11.9 nM

Sequence: UUAUUAUAUGUAGGAUAUGCAUAUUAUUAUUAUGCAGAAGGACAUGAGGAUCACCCAUGUAUAUUAUUAUUGUAUAUUAUAUAU [Title] (Eterna round: R96, puzzle: Exclusion NG 1)
- apparent KD of MS2 coat protein [4]: 25.7 nM

Sequence: AAAAGGCGUGUGAGGAUAUCCGGAGACGUGAAAAGGGAGAAGGCACAUGAGGAUCACCCAUGUGGAGUGUAAAG [Uscece] (puzzle: Brourd's mod of Exclusion 4)
- apparent KD of MS2 coat protein [1]: 38.2 nM
- apparent KD of MS2 coat protein [2]: 18.6 nM
- apparent KD of MS2 coat protein [3]: 27.5 nM

Sequence: AAACAAGCGUGAGGCUCGUCUUAAAAAGCUUCAUGAAAAACAUGAGGAUCACCCAUGUAAAAUGAUCGAAAGAUCAA [JL turnoff v2 28] (Eterna round: R96, puzzle: Sensor v2, turn-off variant 2)
- apparent KD of MS2 coat protein (input ligand: FMN 200 uM): 15.4 nM
- apparent KD of MS2 coat protein [4]: 34.2 nM
- apparent KD of MS2 coat protein (input ligand: none): 18.2 nM

Sequence: UAGGUGUGAGGAUAUGGUAAAGAUAAGAUGAUGAAAGAACUCCAGAAGGCACAUGAGGAUCACCCAUGUAGAUG [JL-ex4-2.16 Jieux mod] (puzzle: Exclusion 4)
- apparent KD of MS2 coat protein [2]: 33.3 nM

Sequence: UGAUCAAAUGUCAGGAUAUGCUGUUGGAAACAACAGCAGAAGGGACAUGAGGAUCACCCAUGUCUUGUCGAUUU [Magic-02] (puzzle: Brourd's mod of Exclusion 4)
- apparent KD of MS2 coat protein [2]: 20.4 nM

Sequence: CUGUCCCAAGGAUAUACAUCAGUCCCAGGGUGCCGCAUAAGACAUGAGGAUCACCCAUGUAGAAGGUGGAGACC [Esaranre] (puzzle: Exclusion 2)
- apparent KD of MS2 coat protein [2]: 82.1 nM

Sequence: CAGUACUGAGGAUAUACAUGAGGAUCACCCAUGUGUUCCAGCUAGGAUACUAGCAAGUGUAGAAGGCAGUACUG [Mat - Exclusion 3 - Eli Mod - D7] (Eterna round: R97, puzzle: Exclusion 3)
- apparent KD of MS2 coat protein (input ligand: FMN 200 uM): 188 nM
- apparent KD of MS2 coat protein (input ligand: none): 396 nM

Sequence: ACAUGAGGAUCACCCAUGUCUGGCUGGUCUGCUCCGGCUGUUGAGGAUAUAGUUCGGUGUUCGCGCUAGAAGGUGAGGGCUGGC [Aenatbe mod 37] (Eterna round: R96, puzzle: Exclusion NG 3)
- apparent KD of MS2 coat protein (input ligand: FMN 200 uM): 32.2 nM
- apparent KD of MS2 coat protein [4]: 23.1 nM
- apparent KD of MS2 coat protein (input ligand: none): 35.6 nM

Sequence: GUAACAUGCUGGUGAUCAUACAUGAGGAUCACCCAUGUAACAAGCUUUUUGCUCGUCUUAUAAGAUCACCAGCAUGU [Stov1/9-A3] (Eterna round: R97, puzzle: Sensor, turn-off variant 1)
- apparent KD of MS2 coat protein (input ligand: FMN 200 uM): 12.2 nM
- apparent KD of MS2 coat protein (input ligand: none): 13.6 nM

Sequence: UCGUUGUGAGGAUAUAUAUGCAGUAAUCCUUUAAAUUUAUAACUUGAGGAUCACCCAAGUAGAAGGCGCGACGU [JR_Ex2_Sub056] (Eterna round: R97, puzzle: Exclusion 2)
- apparent KD of MS2 coat protein (input ligand: FMN 200 uM): 160 nM
- apparent KD of MS2 coat protein (input ligand: none): 30.2 nM
